Bridges are numbered along the chain shown (N, C = ends). Roman numbers before positions name the chains, in order. Where no end group is shown, it is not given here. [ ]: non-standard residue; d: D form. βDpr = 2,3-diaminopropanoic acid whose beta-amino group bears the -CH2CO- link to the S of (NMe)hCys; Phe(4-NH2) = Nc1ccc(C[C@H](N)C(=O)O)cc1; NMehCys = CN[C@@H](CCS)C(=O)O
B1: P2045 (peptide)
peptide 1: Y[dW]KTF[NMehCys]
peptide 2: [βDpr][Phe(4-NH2)]CTS-OH
modifications: thioether I:6-II:1 via CH2CO; also: head-to-tail to a chain's N/C-terminus
notes: also called cyclo[Tyr-DTrp-Lys-Thr-Phe-(NMe)hCys]-CH2CO-βDpr-Phe(4-NH2)-Cys-Thr-Ser-OH
B2: ReP2045 (peptide)
peptide 1: Y[dW]KTF[NMehCys]
peptide 2: [βDpr][Phe(4-NH2)]CTS-OH
modifications: thioether I:6-II:1 via CH2CO; not fully specified; also: head-to-tail to a chain's N/C-terminus
notes: also called cyclo[Tyr-DTrp-Lys-Thr-Phe-(NMe)hCys]-CH2CO-βDpr-Phe(4-NH2)-Cys-Thr-Ser-OH-[R = 0]

Tests used:
somatostatin receptor 5 [1] = target: T1, somatostatin receptor 5 (UniProt P35346 1-364, limits assumed); assay: radioligand competition binding, membranes of CHO-K1 cells expressing SSTR5
T1 construct: whole, on cells; Assayed as membrane preparation of CHO-K1 cells stably expressing the cloned receptor; also called SSTR5; somatostatin receptor subtype 5

somatostatin receptor 2 = target: T2, somatostatin receptor 2 (UniProt P30874 1-369, limits assumed); assay: radioligand competition binding, membranes of CHO-K1 cells expressing SSTR2
T2 construct: whole, on cells; Assayed as membrane preparation of CHO-K1 cells stably expressing the cloned receptor; also called SSTR2; somatostatin receptor subtype 2

somatostatin receptor 5 [2] = target: T1, somatostatin receptor 5; assay: ratio of IC50 on SSTR2 to IC50 on SSTR5 (reference SSTR2), radioligand competition binding on CHO-K1 membranes

T1 sequence (P35346 whole entry): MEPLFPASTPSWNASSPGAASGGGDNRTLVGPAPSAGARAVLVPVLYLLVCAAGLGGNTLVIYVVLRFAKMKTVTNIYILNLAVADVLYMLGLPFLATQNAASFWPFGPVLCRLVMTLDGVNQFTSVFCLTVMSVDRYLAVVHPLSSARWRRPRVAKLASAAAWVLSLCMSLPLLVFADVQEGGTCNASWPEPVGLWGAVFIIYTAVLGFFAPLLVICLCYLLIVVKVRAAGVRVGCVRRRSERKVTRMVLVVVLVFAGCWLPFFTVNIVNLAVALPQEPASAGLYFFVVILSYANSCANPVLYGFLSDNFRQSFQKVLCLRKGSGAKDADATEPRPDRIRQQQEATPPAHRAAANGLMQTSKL
T2 sequence (P30874 whole entry): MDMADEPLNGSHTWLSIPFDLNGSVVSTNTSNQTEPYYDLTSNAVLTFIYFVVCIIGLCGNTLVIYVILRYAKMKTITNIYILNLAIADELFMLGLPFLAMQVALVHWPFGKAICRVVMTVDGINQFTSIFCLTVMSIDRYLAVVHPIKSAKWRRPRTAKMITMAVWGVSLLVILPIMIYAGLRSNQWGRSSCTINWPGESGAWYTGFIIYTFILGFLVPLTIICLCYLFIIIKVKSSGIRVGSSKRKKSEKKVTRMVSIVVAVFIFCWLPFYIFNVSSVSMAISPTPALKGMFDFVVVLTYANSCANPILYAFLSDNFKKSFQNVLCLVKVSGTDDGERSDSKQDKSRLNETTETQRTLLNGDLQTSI

Binder | IC50 (somatostatin receptor 5 [1]) | IC50 (somatostatin receptor 2) | Ratio 2/5 in % (somatostatin receptor 5 [2])
B1 | 249 nM | 0.21 nM | 0.084%
B2 | 627 nM | 0.089 nM | 0.014%

— patent publication US20070066516A1, “Compounds comprising cyclized somatostatin receptor binding peptides” (priority 2005, published 2007)
